3 molecules from US20070098706A1 (University of Texas, published 2007) can be followed below.

Sequences and labels used below:
B1: GST-(SH3)+ (other)
chain: RGLQLQCRGAGGRPVLYQVVAQHSYSAQGPEDLGFRQGDTVDVLCEEPDVPLAVDQAWLEGHCDGRIGIFPKCFVVPAGPRMSGAPGRLPRSQQGDQP
notes: Cloned at the EcoRI site of pGEX-3X in frame with GST; the linker is not described; also called fusion protein of GST and the C-terminal NOXA1(SH3+) polypeptide; not shown: glutathione-S-transferase (GST) encoded by vector pGEX-3X
B3: human p47^phox (other, UniProt P14598 1-390, looked up)
chain: MGDTFIRHIALLGFEKRFVPSQHYVYMFLVKWQDLSEKVVYRRFTEIYEFHKTLKEMFPIEAGAINPENRIIPHLPAPKWFDGQRAAENRQGTLTEYCSTLMSLPTKISRCPHLLDFFKVRPDDLKLPTDNQTKKPETYLMPKDGKSTATDITGPIILQTYRAIANYEKTSGSEMALSTGDVVEVVEKSESGWWFCQMKAKRGWIPASFLEPLDSPDETEDPEPNYAGEPYVAIKAYTAVEGDEVSLLEGEAVEVIHKLLDGWWVIRKDDVTGYFPSMYLQKSGQDVSQAQRQIKRGAPPRRSSIRNAHSIHQRSRKRLSQDAYRRNSVRFLQQRRRQARPGPQSPGSPLEEERQTQRSKPQPAVPPRPSADLILNRCSESTKRKLASAV
modifications: labeled in vitro with [35S]-methionine/[35S]-cysteine
notes: no residue limits are printed

For the assay “human p47^phox”, the target named is B3. The assay can be described thus: GST pull-down of 35S-labelled p47phox with isolated SH3-containing polypeptides. How it is done: (§1) Binding interactions are carried out between GST, GST-NOXA1, GST-NOXA1_{SH3+)}, GST-(SH3wt) and GST-(SH3+) fusion proteins immobilized on GSH-Sepharose, and the in vitro synthesized [³⁵S]-labeled target proteins. Volumes of fusion protein bacterial lysates, previously determined to give equal loading of the GSH-Sepharose, are mixed for 5 min at room temperature with 250 μl of a 50% suspension of washed GSH-Sepharose in PBS (137 mM NaCl, 2.68 mM KCl, […] Na2HPO4, pH 7.3). The suspension is washed twice and resuspended to 500 μl in PBS with 10 mM DTT. Human NOX1, NOX2, p47^phox and MBP-NOXO1₍₂₈₈₋₃₇₀₎ are synthesized and labeled in vitro with [³⁵S]-methlionine/[³⁵S]-cysteine (Redivue Pro-mix L-[³⁵S] labeling mix, Amersham Biosciences, Inc. # AGQ0080) using the TNT® Coupled Reticulocyte Lysate System (Promega) and T7 RNA polymerase. A 24 μl aliquot of the labeling reaction is mixed with 476 μl of the resuspended immobilized GST fusion protein for 15 min at room temperature. The gel pellet is washed 4X with 500 μl of PBS/10 mM DTT/0.05% Triton X-100. […] The entire volume of the denatured samples is separated on 9% SDS-PAGE and analyzed by fluorography. A sample of the original binding gel is analyzed by denaturing SDS-PAGE and Coomassie staining to confirnm the loading of the GST proteins. […]

For assay [1], the target named is T1, GST-NOXA1(SH3+) (human, UniProt Q86UR1 1-476).
T1 construct: the vector-encoded linker is not described; Immobilised on GSH-Sepharose; not shown: glutathione-S-transferase (GST) encoded by vector pGEX-3X
T1 sequence: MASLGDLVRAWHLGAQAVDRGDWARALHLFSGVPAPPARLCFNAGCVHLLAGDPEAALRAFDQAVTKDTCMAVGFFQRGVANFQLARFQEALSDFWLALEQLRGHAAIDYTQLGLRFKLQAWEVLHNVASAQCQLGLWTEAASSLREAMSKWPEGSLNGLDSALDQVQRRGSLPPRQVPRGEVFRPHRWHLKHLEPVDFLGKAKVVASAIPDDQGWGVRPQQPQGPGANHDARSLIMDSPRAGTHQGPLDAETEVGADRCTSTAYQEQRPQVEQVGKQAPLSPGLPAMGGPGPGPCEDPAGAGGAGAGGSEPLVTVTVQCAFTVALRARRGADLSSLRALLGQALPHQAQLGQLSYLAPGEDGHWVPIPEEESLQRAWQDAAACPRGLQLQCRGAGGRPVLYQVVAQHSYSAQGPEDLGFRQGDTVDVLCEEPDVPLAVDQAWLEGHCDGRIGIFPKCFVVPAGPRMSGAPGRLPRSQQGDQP
The assay can be described thus: GST pull-down of 35S-labelled MBP-NOXO1(288-370), SDS-PAGE and fluorography. How it is done: as §1

The assay “GST-(SH3)+” addresses B1. The assay can be described thus: GST pull-down of 35S-labelled MBP-NOXO1(288-370) with isolated SH3-containing polypeptides. The procedure: as §1
Assay [2] has as its target T1, GST-NOXA1(SH3+). In words: GST pull-down of 35S-labelled p47phox, SDS-PAGE and fluorography. How it is done:
as §1

B1: in the assay with human p47^phox, the binding result was “no binding”.

B2: MBP-NOXO1(288-370) (other, human, UniProt Q8NFA2 294-376, looked up, not shown: large carriers)
chain: EGLGALLSGTGFRGGDDPAGEARGFPEPSQATAPPPTVPTRPSPGAIQSRCCTVTRRALERRPRRQGRPRGCVDSVPHPTTEQ
modifications: labeled in vitro with [35S]-methionine/[35S]-cysteine
notes: range 294-376; Cloned at the SacI/XhoI sites of pET23bMBPH6 in frame with MBP; linker and any vector tag are not described; Made by in vitro coupled transcription/translation; also called NBP-NOXO1(288-370)
As to B2, the binding result in the assay with GST-NOXA1(SH3+) [1] and with GST-(SH3)+ was “no binding” throughout.
Consider B3, for which the binding result with GST-NOXA1(SH3+) [2] is reported as “no binding”.
